{"source": "paper PMC3510032", "key": {"[1]": {"biological_target": "GST-Shep isoform E (Drosophila (Oregon R))", "experiment": "pull-down; 2 µg GST or GST fusion protein immobilised on Glutathione-Agarose, 35 µg soluble His-Mod(mdg4)2.2 in 350 µL PBSMT (137 mM NaCl, 250 mM MgCl2, 0.3% Triton X-100, 1 mM DTT, 100 mg/mL BSA), 4°C, 2 h, 5 washes; bound protein detected by Western blotting"}, "[2]": {"biological_target": "GST-Shep isoform A (Drosophila (Oregon R))", "experiment": "pull-down; 2 µg GST or GST fusion protein immobilised on Glutathione-Agarose, 35 µg soluble His-Mod(mdg4)2.2 in 350 µL PBSMT (137 mM NaCl, 250 mM MgCl2, 0.3% Triton X-100, 1 mM DTT, 100 mg/mL BSA), 4°C, 2 h, 5 washes; bound protein detected by Western blotting"}, "[3]": {"biological_target": "GST-Shep isoform B/D (Drosophila (Oregon R))", "experiment": "pull-down; 2 µg GST or GST fusion protein immobilised on Glutathione-Agarose, 35 µg soluble His-Mod(mdg4)2.2 in 350 µL PBSMT (137 mM NaCl, 250 mM MgCl2, 0.3% Triton X-100, 1 mM DTT, 100 mg/mL BSA), 4°C, 2 h, 5 washes; bound protein detected by Western blotting"}, "[4]": {"biological_target": "Shep (endogenous, embryo nuclear extract) (Drosophila (endogenous in embryos)) (UniProt Q8MSV2)", "experiment": "co-IP; embryo nuclear extracts in HBSMT, α-Shep or pre-immune serum pre-conjugated to protein A sepharose, 1 h at 4°C; Western blotting"}, "[5]": {"biological_target": "GST-Shep isoform E (Drosophila (Oregon R))", "experiment": "pull-down; GST or GST fusion protein immobilised on Glutathione-Agarose, soluble His-Su(Hw) in HBSM (50 mM HEPES pH 6.7, 150 mM NaCl, 5 mM KCl, 2.5 mM MgCl2) with 0.3% Triton-X 100, 0.2 M KCl, 1 mM DTT, 100 mg/mL BSA, 4°C, 2 h; bound protein detected by Western blotting"}, "[6]": {"biological_target": "GST-Shep isoform A (Drosophila (Oregon R))", "experiment": "pull-down; GST or GST fusion protein immobilised on Glutathione-Agarose, soluble His-Su(Hw) in HBSM (50 mM HEPES pH 6.7, 150 mM NaCl, 5 mM KCl, 2.5 mM MgCl2) with 0.3% Triton-X 100, 0.2 M KCl, 1 mM DTT, 100 mg/mL BSA, 4°C, 2 h; bound protein detected by Western blotting"}, "[7]": {"biological_target": "GST-Shep isoform B/D (Drosophila (Oregon R))", "experiment": "pull-down; GST or GST fusion protein immobilised on Glutathione-Agarose, soluble His-Su(Hw) in HBSM (50 mM HEPES pH 6.7, 150 mM NaCl, 5 mM KCl, 2.5 mM MgCl2) with 0.3% Triton-X 100, 0.2 M KCl, 1 mM DTT, 100 mg/mL BSA, 4°C, 2 h; bound protein detected by Western blotting"}}, "data": [{"molecule": "His-Mod(mdg4)2.2 (natural protein)", "values": [{"measurement": "stoichiometry N", "setting": "[1]", "result": 1, "unit": "molar ratio"}, {"measurement": "stoichiometry N", "setting": "[2]", "result": 1, "unit": "molar ratio"}, {"measurement": "stoichiometry N", "setting": "[3]", "result": 1, "unit": "molar ratio"}]}, {"molecule": "Mod(mdg4)2.2 (endogenous, embryo nuclear extract) (natural protein)", "values": [{"measurement": "percent of total recovered in the IP", "setting": "[4]", "result": 0.1, "unit": "%"}]}, {"molecule": "His-Su(Hw) (natural protein) MSASKEGKEKKGKLLGVENISPPKDKRPATRMKLLNDVGAGEDSEASTTTTTSRTPSNKQEKRGSVAGSRIKILNEEILGTPKTEKRGATKSTAPAASTVKILNEKKTPSATVTAVETTKIKTSPSKRKKMEHYVLQAVKSENTKADTTVTVVTEEDDTIDFILADDEEVVPGRIENNNGQEIVVTEDDEDLGEDGDEDGEDSSGKGNSSQTKIKEIVEHVCGKCYKTFRRVQSLKKHLEFCRYDSGYHLRKADMLKNLEKIEKDAVVMEKKDICFCCSESYDTFHLGHINCPDCPKSFKTQTSYERHIFITHSEFSDFPCSICNANLRSEALLALHEEQHKSRGKPYACKICGKDFTRSYHLKRHQKYSSCSSNETDTMSCKVCDRVFYRLDNLRSHLKQHLGTQVVKKPEYMCHTCKNCFYSLSTLNIHIRTHTGEKPFDCDLCDKKFSALVALKKHRRYHTGEKPYSCTVCNQAFAVKEVLNRHMKRHTGERPHKCDECGKSFIQATQLRTHSKTHIRPFPCEQCDEKFKTEKQLERHVKTHSRTKRPVFSCAECKRNFRTPALLKEHMDEGKHSPKQQRSSMRSAVKIMERTDCAICDKNFDSSDTLRRHIRTVHECDPDDIFGVEPHPSKRAKKDIESEEVVPVALNTSAGSLISSQTDGNGVVVREFLVDEGDGAAQTITLENETYTILPLDGAIEGEQLTDEAGVKPEAKKEEAQVSPVVKKEQRKSLAASLAAAIADNLEESCSEDDFSGEILTEEDIKLKENVGKLIDMLVDPPILKKYGWPNAPEETVLCKVIENCGHDLTKGGENYAELDYGSRMREYCKLLFTVVIHNDSIKSLLNNFPIDDVIEYVLGDEDQDEGGLDKDNESHSGDEEAVSVTGETKTNEIREKPEKKEVSAKSEKKEIVGKAVDKDNSEEVVRENKKKPVGEQEKA", "values": [{"measurement": "stoichiometry N", "setting": "[5]", "result": 1, "unit": "molar ratio"}, {"measurement": "stoichiometry N", "setting": "[6]", "result": 1, "unit": "molar ratio"}, {"measurement": "stoichiometry N", "setting": "[7]", "result": 1, "unit": "molar ratio"}]}]}
